Laboratory results as given in the supplement of paper PMC9112550, “Optimization of the antimicrobial peptide Bac7 by deep mutational scanning” (BMC Biology, 2022).

Each sequence was assayed on Escherichia coli TOP10 (assay: shrunken log2 fold change of peptide-encoding DNA abundance (4.5 h post-induction vs induction); higher = less antimicrobial activity (less host growth inhibition)). Conditions: time post-induction: 4.5 h; library: site-saturation at positions 5, 18, 19, 20.
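Note: peptides expressed intracellularly from a pBAD plasmid library in pooled LB shake-flask culture, induced with 0.3% L-arabinose, DNA abundance read by NGS, three biological replicates, DESeq2 with apeglm shrinkage.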

Sequence	shrunken log2 fold change
RRIRMRPPRLPRPRPRPINDPRP	-0.401
RRIRNRPPRLPRPRPRPVQLPRP	0.176
RRIRWRPPRLPRPRPRPGNVPRP	-0.127
RRIRVRPPRLPRPRPRPPHMPRP	-0.0804
RRIRWRPPRLPRPRPRPTMRPRP	0.925
RRIRCRPPRLPRPRPRPDRTPRP	0.0438
RRIRLRPPRLPRPRPRPKSDPRP	0.00855
RRIRGRPPRLPRPRPRPPWWPRP	0.953
RRIRFRPPRLPRPRPRPEETPRP	0.00709
RRIRMRPPRLPRPRPRPDFDPRP	0.15
RRIRWRPPRLPRPRPRPGLCPRP	0.412
RRIRMRPPRLPRPRPRPARIPRP	0.56
RRIRRRPPRLPRPRPRPATTPRP	0.092
RRIRRRPPRLPRPRPRPIIAPRP	0.0198
RRIRIRPPRLPRPRPRPPHFPRP	-0.138
RRIRKRPPRLPRPRPRPCFEPRP	0.336
RRIRYRPPRLPRPRPRPMRHPRP	-0.0913
RRIRTRPPRLPRPRPRPIERPRP	0.107
RRIRVRPPRLPRPRPRPVCRPRP	-0.0404
RRIRDRPPRLPRPRPRPVRCPRP	0.339
RRIRGRPPRLPRPRPRPSTSPRP	0.315
RRIRCRPPRLPRPRPRPTAFPRP	0.0759

Sequence	shrunken log2 fold change
RRIRERPPRLPRPRPRPAYAPRP	0.0657
RRIRCRPPRLPRPRPRPICGPRP	0.289
RRIRGRPPRLPRPRPRPAPTPRP	1.2
RRIRIRPPRLPRPRPRPEFEPRP	-0.0399
RRIRDRPPRLPRPRPRPRGEPRP	0.267
RRIRKRPPRLPRPRPRPYQQPRP	-0.00547
RRIRKRPPRLPRPRPRPGQAPRP	0.383
RRIRIRPPRLPRPRPRPPHLPRP	-0.14
RRIRGRPPRLPRPRPRPSLQPRP	1.07
RRIRARPPRLPRPRPRPCVTPRP	0.176
RRIRRRPPRLPRPRPRPVCSPRP	0.225
RRIRHRPPRLPRPRPRPTKEPRP	-0.0586
RRIRKRPPRLPRPRPRPPWPPRP	0.827
RRIRRRPPRLPRPRPRPEIKPRP	0.27
RRIRDRPPRLPRPRPRPRRIPRP	0.0214
RRIRWRPPRLPRPRPRPLYDPRP	-0.0701
RRIRCRPPRLPRPRPRPVWRPRP	0.358
RRIRARPPRLPRPRPRPWIFPRP	-0.114
RRIRIRPPRLPRPRPRPPYKPRP	-0.386
RRIRYRPPRLPRPRPRPHYPPRP	-1.84
RRIRSRPPRLPRPRPRPPKTPRP	-0.0288
RRIRHRPPRLPRPRPRPCDKPRP	-0.113

Sequence	shrunken log2 fold change
RRIRNRPPRLPRPRPRPLCEPRP	-0.107
RRIRARPPRLPRPRPRPREWPRP	-0.0253
RRIRWRPPRLPRPRPRPTDCPRP	0.088
RRIRQRPPRLPRPRPRPATMPRP	-0.0699
RRIRFRPPRLPRPRPRPTEAPRP	0.332
RRIRTRPPRLPRPRPRPKEMPRP	-0.0567
RRIRRRPPRLPRPRPRPRCLPRP	0.219
RRIRFRPPRLPRPRPRPFLGPRP	0.0749
RRIRMRPPRLPRPRPRPQYPPRP	-0.0385
RRIRCRPPRLPRPRPRPFRQPRP	-0.0498
RRIRVRPPRLPRPRPRPTHWPRP	0.509
RRIRSRPPRLPRPRPRPQGMPRP	-0.124
RRIRARPPRLPRPRPRPRNCPRP	0.849
RRIRTRPPRLPRPRPRPSELPRP	-0.255
RRIRYRPPRLPRPRPRPFICPRP	-0.579
RRIRYRPPRLPRPRPRPMVTPRP	0.0309
RRIRSRPPRLPRPRPRPLEYPRP	-0.277
RRIRWRPPRLPRPRPRPQPEPRP	0.139
RRIRGRPPRLPRPRPRPAEKPRP	0.261
RRIRTRPPRLPRPRPRPGPEPRP	0.0888
RRIRHRPPRLPRPRPRPELPPRP	-0.056
RRIRGRPPRLPRPRPRPVMVPRP	0.128

Sequence	shrunken log2 fold change
RRIRFRPPRLPRPRPRPEYIPRP	-0.0963
RRIRNRPPRLPRPRPRPYTAPRP	-0.502
RRIRGRPPRLPRPRPRPFYNPRP	0.0314
RRIRQRPPRLPRPRPRPTMCPRP	-0.0814
RRIRPRPPRLPRPRPRPVIPPRP	-0.213
RRIRSRPPRLPRPRPRPDIVPRP	0.252
RRIRYRPPRLPRPRPRPGAPPRP	0.312
RRIRWRPPRLPRPRPRPNGPPRP	-0.0107
RRIRIRPPRLPRPRPRPEKTPRP	-0.0512
RRIRMRPPRLPRPRPRPTAAPRP	2.79
RRIRERPPRLPRPRPRPYTKPRP	-0.277
RRIRYRPPRLPRPRPRPPACPRP	-0.146
RRIRDRPPRLPRPRPRPCMVPRP	0.0359
RRIRKRPPRLPRPRPRPMMSPRP	-0.00973
RRIRPRPPRLPRPRPRPDFCPRP	-0.0633
RRIRQRPPRLPRPRPRPSCLPRP	-0.0903
RRIRKRPPRLPRPRPRPCLKPRP	-0.0379
RRIRDRPPRLPRPRPRPETGPRP	-0.0106
RRIRFRPPRLPRPRPRPCNTPRP	-0.0482
RRIRERPPRLPRPRPRPPCIPRP	-0.163
RRIRDRPPRLPRPRPRPYIAPRP	-0.652
RRIRYRPPRLPRPRPRPTVWPRP	0.385

Sequence	shrunken log2 fold change
RRIRQRPPRLPRPRPRPWNIPRP	-0.0185
RRIRVRPPRLPRPRPRPGYKPRP	-0.222
RRIRNRPPRLPRPRPRPVYLPRP	-0.216
RRIRPRPPRLPRPRPRPTLHPRP	0.0853
RRIRGRPPRLPRPRPRPPMNPRP	0.464
RRIRFRPPRLPRPRPRPFFQPRP	-0.378
RRIRNRPPRLPRPRPRPRDVPRP	0.0624
RRIRSRPPRLPRPRPRPWMTPRP	-0.000334
RRIRWRPPRLPRPRPRPFWRPRP	0.111
RRIRHRPPRLPRPRPRPDNKPRP	-0.27
RRIRDRPPRLPRPRPRPKFNPRP	-0.236
RRIRNRPPRLPRPRPRPCYEPRP	-0.0244
RRIRLRPPRLPRPRPRPNVWPRP	0.346
RRIRFRPPRLPRPRPRPGVAPRP	0.292
RRIRLRPPRLPRPRPRPIAIPRP	0.12
RRIRWRPPRLPRPRPRPKDDPRP	0.553
RRIRKRPPRLPRPRPRPYMYPRP	-0.445
RRIRLRPPRLPRPRPRPAEWPRP	0.0143
RRIRRRPPRLPRPRPRPADCPRP	0.0869
RRIRKRPPRLPRPRPRPWNFPRP	-0.162
RRIRERPPRLPRPRPRPNIYPRP	-0.538
